Read-outs that look alike come from different tables or passages of the source.
T1: soluble Hendra virus G glycoprotein (sG) (Hendra virus, UniProt O89343 71-604)
T1 sequence: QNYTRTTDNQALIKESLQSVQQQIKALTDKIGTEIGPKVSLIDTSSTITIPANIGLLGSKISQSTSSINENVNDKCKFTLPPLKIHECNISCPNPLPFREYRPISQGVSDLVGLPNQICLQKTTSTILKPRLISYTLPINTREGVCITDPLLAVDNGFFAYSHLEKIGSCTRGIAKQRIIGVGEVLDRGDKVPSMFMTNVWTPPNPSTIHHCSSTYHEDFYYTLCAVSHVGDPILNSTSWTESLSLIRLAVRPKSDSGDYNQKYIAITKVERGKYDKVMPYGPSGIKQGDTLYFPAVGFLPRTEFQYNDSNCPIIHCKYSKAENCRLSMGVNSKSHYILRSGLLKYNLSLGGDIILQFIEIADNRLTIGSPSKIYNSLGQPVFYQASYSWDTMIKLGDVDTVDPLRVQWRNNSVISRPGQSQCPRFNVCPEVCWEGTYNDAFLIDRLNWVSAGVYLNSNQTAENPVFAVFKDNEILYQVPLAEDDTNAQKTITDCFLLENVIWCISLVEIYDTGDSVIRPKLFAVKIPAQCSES

T2: HeV G envelope glycoprotein (on effector cells expressing HeV F and G, or on infectious HeV) (Hendra virus, UniProt O89343 1-604)
T2 sequence: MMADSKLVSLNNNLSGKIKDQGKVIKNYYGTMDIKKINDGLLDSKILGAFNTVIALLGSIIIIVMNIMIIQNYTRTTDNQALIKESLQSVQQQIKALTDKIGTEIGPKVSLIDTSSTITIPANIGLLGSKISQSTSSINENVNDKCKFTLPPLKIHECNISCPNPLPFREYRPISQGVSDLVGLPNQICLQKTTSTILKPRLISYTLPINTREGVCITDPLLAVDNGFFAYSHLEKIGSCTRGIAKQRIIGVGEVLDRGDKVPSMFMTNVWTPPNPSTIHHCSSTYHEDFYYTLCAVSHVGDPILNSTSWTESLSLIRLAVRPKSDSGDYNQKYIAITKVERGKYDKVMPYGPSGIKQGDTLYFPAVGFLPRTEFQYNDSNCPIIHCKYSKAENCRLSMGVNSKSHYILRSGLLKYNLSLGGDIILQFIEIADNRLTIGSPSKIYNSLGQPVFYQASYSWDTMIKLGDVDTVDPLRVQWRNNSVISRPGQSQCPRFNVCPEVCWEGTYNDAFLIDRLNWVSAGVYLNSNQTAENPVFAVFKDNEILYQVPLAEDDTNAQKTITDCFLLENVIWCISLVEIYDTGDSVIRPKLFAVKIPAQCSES


Legend:
[1] = target: T1, soluble Hendra virus G glycoprotein (sG); test: ELISA, purified soluble Fab on coated sG
[2] = target: T1, soluble Hendra virus G glycoprotein (sG); test: SPR (Biacore 1000), sG immobilised on CM5, Fab injected, 25 C, 1:1 Langmuir fit
[3] = target: T2, HeV G envelope glycoprotein (on …); test: cell-based or functional assay
[4] = target: T1, soluble Hendra virus G glycoprotein (sG)
[5] = target: T1, soluble Hendra virus G glycoprotein (sG); test: SPR (Biacore); upper end of the range told of the group, tied to m103 by Table 5

Row | Binder | A450 [1] [A450] | Kd [2] [nM] | koff [2] [s⁻¹] | kon [2] [M⁻¹ s⁻¹] | further results
1 | Fab m111 (Fab, V domains shown) VH: QVQLVQSGAEVKKPGATVKISCKVSGYTFTDYYMHWVQQAPGKGLEWMGLVDPEDGETIYAEKFQGRVTITADTSTDTAYMELSSLRSEDTAVYYCATEGADYWGQGTLVTVSS VL: DVVMTQSPLSLPVALGQPASISCRSSQSLVHSDGNTYLNWFQQRPGQSPRRLLYKVSNRESGVPDRFSGSGSGSDFTLKISRVEAEDVGIYYCMQGTHWPPITFGQGTRLEIKR | 0 |  |  |  | 
2 | Fab m112 (Fab, V domains shown) VH: QVQLVQSGAEVKKPGATVKISCKVSGYTFTDYYMHWVQQAPGKGLEWMGLVDPEDGETIYAQKFQGRVTITADTSTNTAYMELSSLRSEDTAVYYCATDGADYWDQGTLGTVST VL: QSVLTQPPSVSGAPGQTVTISCTGSSSNIGGDSDVHWYQQLPGSAPKLLIYGNRNRPSGVPDRFSGSRSGTSASLAVIGVQADDEADYYCQCYDSSLNGYVFGPGTKVIVL | 0.4 |  |  |  | 
3 | Fab m116 (Fab, V domains shown) VH: EVQLVQSGAEVKKPGSSVKVSCKASGGAFSSYAISWVRQAPGQGLEWMGGIIPIFGTANYAQKFQGRVTITADESTSTAYMELSSLRSEDTAVYYCARDSAGLGAWGQGTLVAVSS VL: DIQMTQSPSSLSASVGDRVTITCRASQGISSALAWYQQKPGKAPKLLIYDASSLESGVPSRFSGSGSGTDFTLTISSLQPEDFATYYCQQFNSYPLTFGQGTRLEIKR | 0.3 |  |  |  | 
4 | Fab m113 (Fab, V domains shown) VH: QVQLQQSGAEVKKPGSSVKVSCKASGGTFSSYAISWVRQAPGQGLEWMGWTNPNSGGTNYAQKLQGRVTMTTDTSTSTAYMELRSLRSDDTAVYYCANYKLQSDAFDIWGQGTMVTVSS VL: DIQMTQSPSSLSASVGDRVTITCRASQDIGNFLVWFQQKPGKAPKSLIYAASRLQSGVPSRFSGSGSGTDFTLTISSLQPEDFATYYCQHYKSYPLTFGGGTKVEIKR | 0.1 |  |  |  | 
5 | Fab m105 (Fab, V domains shown) VH: QVQLVQSGGGVVQPGRSLRLSCAASGFTFSSYAMHWVRQAPGKGLEWVAVISYDGSNKYYADSVKGRFTISRDNSKNTLYLQMNSLRAEDTAVYYCARVGGITGTADAFDIWGQGTMVTVSS VL: not shown | 0.9 | 69 | 0.0051 | 74000 | 
6 | Fab m101 (Fab, V domains shown) VH: QVQLVQSGAEVKKPGASVKVSCKASGGTFSSYAISWVRQAPGQGLEWMGGIIPIFGTANYAQKFQGRVTITADESTSTAYMELSSLRSGDTAVYYCARDPGGYSYGPYYYYYGMDVWGQGTTVTVSS VL: DIQMTQSPSSVSASVGDRVTITCRASQGIGPWLAWYQQKPGKAPKFLIYRASTLQSGVPSRFSGSGSGTDFTLTISSLQPEDFATYYCQQAHSFPFTFGPGTKVDIKR | 1 | 28 | 0.0035 | 130000 | IC50 of HeV Env-mediated cell fusion, reporter gene assay, PCI-13 target cells [3]: 38 µg/mL
7 | IgG1 m101 (antibody, V domains shown) VH: QVQLVQSGAEVKKPGASVKVSCKASGGTFSSYAISWVRQAPGQGLEWMGGIIPIFGTANYAQKFQGRVTITADESTSTAYMELSSLRSGDTAVYYCARDPGGYSYGPYYYYYGMDVWGQGTTVTVSS VL: DIQMTQSPSSVSASVGDRVTITCRASQGIGPWLAWYQQKPGKAPKFLIYRASTLQSGVPSRFSGSGSGTDFTLTISSLQPEDFATYYCQQAHSFPFTFGPGTKVDIKR |  |  |  |  | IC50 of HeV Env-mediated cell fusion, reporter gene assay, PCI-13 target cells [3]: 1.2 µg/mL
8 | Fab m103 (Fab, V domains shown) VH: EVQLVESGGGLIQPGGSLRLSCAASGFTVSSNYMSWVRQAPGKGLEWVSVIYSGGSTYYADSVKGRFTISRDNSKNTLYLQMNSLRAEDTAVYYCARDSRYHDAFDIWGQGTMVTVSS VL: not shown | 0.8 |  |  |  | Kd [4]: 1800 nM; Kd [5]: 1000 nM
9 | Fab m108 (Fab, V domains shown) VH: EVQLVESGGGLVKPGGSLRLSCAASGFTFSDYYMSWIRQAPGKGLEWVSYISSSGSTIYYADSVKGRFTISRDNAKNSLYLQMNSLRAEDTAVYYCARVGGAFDIWGQGTMVTVSS VL: NFMLTQPHSVSGSPGKTVTISCTRSSGSIASNYVQWYRQSPGSAPTTVIYEGYQRPSGVPDRFSGSIDSSSNSASLTISGLETEDEADYYCQSYDATNHQVVFGGGTKLTVL | 0.5 |  |  |  | 
10 | Fab m106 (Fab, V domains shown) VH: QVQLQQSGAEVKKPGSSVKVSCKASGGTFSSYAISWVRQAPGQGLEWMGGIIPIFGTANYAQKFQGRVTITADKSTSTAYMELSSLRSEDTAVYYCARDQLAGYYYDSSGYHYYYYGMDVWGQGTTVTVSS VL: not shown | 1.6 | 54 | 0.0033 | 62000 | 
11 | Fab m110 (Fab, V domains shown) VH: EVQLVQSGGGLVQPGRSLRLSCAASGFTFDDYAMHWVRQAPGKGLEWVSAISGSGGSTYYADSVKGRFTISRDNSKNTLYLQMNSLRAEDTAVYYCASEGLPETDDAFDIWGQGTMVTVSS VL: DVVMTQSPLSLPVTPGEPASISCRSSQSLLYSDGYNYLDWYLQKPGQSPQLLIYLGSRRASGVPDRFSGSGSGTDFTLKINTVEAEDVGVYYCMQGVEIPFTFGPGTKVEIKR | 0 |  |  |  | 
12 | Fab m115 (Fab, V domains shown) VH: QVQLQQSGAEVKKPGSSVKVSCKASGGTFRSYAISWVRQAPGQGLEWMGGIIPIFGTANYAQKFQGRVTITADESTSTAYMELSSLRSEDTAVYYCARGSQSYDHYYYYGMDVWGQGTTVTVSS VL: QSALTQPASVSGSPGQSITISCTGTSSDVGGYNYVSWYQQHPGKAPKLMIFDVSNRPSGVSNRLSGSKSGNTASLTISGLQAEDEADYYCSSYTSNTVVFGGGTKLTVL | 0.4 |  |  |  | 
13 | Fab m117 (Fab, V domains shown) VH: QITLKESGPTLVKPTQTLTLTCTFSGFSLSTSGVGVGWIRQPPGKALEWLALIYWDDDKRYSPSLKSRLTITKDTSKNQVVLTMTNMDPVDTATYYCAHRESGPEFFQHWGQGTLVTVSS VL: DVVMTQSPLSLPVTLGQPASISCNSSQSLVYSNGITYLNWFHQRPGQSPRRLIYQVSNWDSEVPDRFSGSGSATDFTLKISRVEADDVGIYYCMQGTHWPPTFGQGTRLEIKR | 0 |  |  |  | 
14 | Fab m109 (Fab, V domains shown) VH: QMQLQQWGAGLLKPSETLSLTCAVYGGSFSGYYWSWIRQPPGKGLEWIGEINHSGSTNYNPSLKSRVTISVDTSKNQFSLKLSSVTAADTAVYYCARGWFRDWYFDLWGRGTLVTVSS VL: DIQMTQSPSSLSASVGDRVTITCRASQDIRNDLGWYQQRPGKAPKLLIYAASSLQSGVPSRFSGSGSGTDFTLTISSLQPEDSATYFCLQDYQYPWTFGQGTKVEIKR | 0 |  |  |  | 
15 | Fab m107 (Fab, V domains shown) VH: EVQLVQSGAEVKKPGASVKVSCKASGYTFTGYYMHWVRQAPGQGLEWMGIINPSGGSTSYAQKFQGRVTMTRDTSTSTVYMELSSLRSEDTAVYYCARDHVHGPDAFDIWGQGTMVTVSS VL: not shown | 0.6 | 78 | 0.0022 | ~30000 | 
16 | Fab m104 (Fab, V domains shown) VH: not shown VL: DVVMTQSPLSLSVTAGEPASISCRSSQSLLHSNGHIYLDWYLQKPGQSPQLLIYMASNRASGVPDRFSGSGSGTDFTLRINRVETEDVGIYYCMQSLHTTRTFGQGTKVEIKR | 0.7 | 600 | 0.0016 | 3000 | 
